From patent US20220169693A1, “Screening Assays, Modulators and Modulation of Intracellular Signalling Mediated by Immunoglobulin Superfamily Cell Adhesion Molecules” (Monash University, priority 2018, published 2022) come the findings set out here.

What all share (type): cell-based
The target of test [1] is T1, cytosolic tail of human EpCAM, EpCAM289-314 (Homo sapiens, UniProt P16422).
T1 construct: corresponds to residues 289-314 of EpCAM plus an initiating Methionine; initiating Methionine (N); expressed in transfected cells; host or cells: AT1R-CHO (CHO stably transfected with human AT1R-Rluc8), transient transfection
T1 sequence (P16422 with tags, fused parts or gaps limits assumed): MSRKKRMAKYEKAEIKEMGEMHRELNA
Nature of the test: Ang II-induced p65 expression in AT1R-CHO cells transfected with cytosolic tail of EpCAM. Conditions: Ang II 1 μM, co-transfection (FIG. 3J). On the procedure: (§1) Adult retinal pigment epithelial (ARPE) cells were cultured in Dulbecco's modified Eagle's medium (DMEM)/F12 endothelial cell growth supplement (ECGS) supplemented media. Chinese Hamster Ovary (CHO) cells were cultured using F12 media (10% FCS with 2 mM glutamine). Human microvascular endothelial cells (HMEC) were cultured in MCDB 131 medium (10% FCS with 10 mM glutamine, EGF and hydrocortisone).
(§2) 100 ng of AT1R-Rluc8 construct was transfected into CHO cells using Lipofectamine 2000 (Thermo). Stable transfectants were selected using G418. AT1R-CHO were then transiently transfected with the IgSF CAM and/or RAGE constructs using Lipofectamine 2000 (Invitrogen) and incubated for 16h.
After 2 hours of exposure to Ang II (1 μM) cells were placed in Trizol, mRNA extracted and cDNA synthesized. Changes in the gene expression of the NFκB subunit, p65 (RelA) or NFκB-activated target genes (e.g ICAM-1) were estimated by quantitative real-time RT-PCR, performed using the TaqMan system based on real-time detection of accumulated fluorescence (ABI Prism 7700, Perkin-Elmer Inc, PE Biosystems, Foster City, Calif., USA). Gene expression was normalized to 18S mRNA and reported as fold change compared to the level of expression in untreated control mice/cells, which were given an arbitrary value of 1.

For test [2], the target named is T2, full length murine ALCAM1-583 (Mus musculus, UniProt Q61490).
T2 construct: host or cells: AT1R-CHO (CHO stably transfected with human AT1R-Rluc8), transient transfection; untagged clone in pCMV6
T2 sequence (Q61490 28-583): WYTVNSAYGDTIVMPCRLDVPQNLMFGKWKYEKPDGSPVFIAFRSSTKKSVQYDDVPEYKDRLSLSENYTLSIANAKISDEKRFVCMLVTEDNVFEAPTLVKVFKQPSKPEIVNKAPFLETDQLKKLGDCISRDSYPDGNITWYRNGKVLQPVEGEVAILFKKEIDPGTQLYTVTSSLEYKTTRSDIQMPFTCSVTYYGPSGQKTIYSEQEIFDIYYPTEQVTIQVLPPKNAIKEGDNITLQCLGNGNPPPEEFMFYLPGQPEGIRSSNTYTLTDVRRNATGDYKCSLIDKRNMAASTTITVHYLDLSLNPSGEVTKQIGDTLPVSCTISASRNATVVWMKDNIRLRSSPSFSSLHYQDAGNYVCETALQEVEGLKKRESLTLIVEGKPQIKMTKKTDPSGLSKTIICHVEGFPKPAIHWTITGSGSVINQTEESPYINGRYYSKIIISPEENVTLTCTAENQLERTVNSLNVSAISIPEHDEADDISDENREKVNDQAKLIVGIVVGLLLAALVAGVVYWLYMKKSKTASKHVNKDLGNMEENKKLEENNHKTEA
Nature of the test: S100A8/A9-induced PCNA expression in CHO cells transfected with full length murine ALCAM. The settings on record: S100A8/A9 1 μM 2 h, co-transfection (FIG. 4A). On the procedure:
as §1
Oligonucleotides were designed and ordered to generate the ALCAM, BCAM and MCAM intracellular (cytosolic) domains. These included a 5′ NheI site, Kozak sequence and initiating Methionine and then DNA sequences corresponding to ALCAM residues 552-583, BCAM residues 569-628 and MCAM residues 584-637 respectively (Note that as residue 551 of ALCAM is Methionine, the cytosolic tail of ALCAM effectively corresponded to residues 551-583). The pCIneo parental vector was digested with NheI and NotI restriction enzymes, and the DNA of the fragments of the ALCAM, BCAM and MCAM tails/cytosolic domains were ligated into the digested plasmid. […]
[…] Changes in the gene expression of the NFκB subunit, p65 (RelA) or NFκB-activated target genes (e.g ICAM-1) were estimated by quantitative real-time RT-PCR, performed using the TaqMan system based on real-time detection of accumulated fluorescence (ABI Prism 7700, Perkin-Elmer Inc, PE Biosystems, Foster City, Calif., USA). […]

In test [3] the target is full length RAGE1-404 (Homo sapiens, UniProt Q15109). The test can be described thus: S100A8/A9-induced PCNA expression in CHO cells transfected with full length RAGE. Also on record: expressed in transfected cells; host or cells: CHO cells. The settings on record: S100A8/A9 1 μM 2 h, co-transfection (FIG. 4B).
full length RAGE1-404, sequence (Q15109 23-404): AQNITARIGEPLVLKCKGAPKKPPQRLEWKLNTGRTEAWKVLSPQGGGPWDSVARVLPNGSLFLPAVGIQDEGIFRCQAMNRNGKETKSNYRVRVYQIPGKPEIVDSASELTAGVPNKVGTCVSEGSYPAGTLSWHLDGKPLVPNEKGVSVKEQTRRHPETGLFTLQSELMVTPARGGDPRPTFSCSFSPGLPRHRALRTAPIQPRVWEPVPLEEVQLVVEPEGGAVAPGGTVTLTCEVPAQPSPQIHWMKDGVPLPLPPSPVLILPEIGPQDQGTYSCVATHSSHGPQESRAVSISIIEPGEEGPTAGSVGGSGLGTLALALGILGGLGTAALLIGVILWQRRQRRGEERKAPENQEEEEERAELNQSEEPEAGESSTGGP
For test [4], the target named is T3, cytosolic tail of BCAM, BCAM569-628 (Homo sapiens, UniProt P50895).
T3 sequence (P50895 with tags, fused parts or gaps): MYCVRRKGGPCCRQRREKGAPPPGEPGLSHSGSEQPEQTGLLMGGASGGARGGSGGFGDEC
Nature of the test: Ang II-induced p65 expression in AT1R-CHO cells transfected with cytosolic tail of BCAM. Also on record: corresponds to residues 569-628 of BCAM plus an initiating Methionine; initiating Methionine (N); expressed in transfected cells; host or cells: AT1R-CHO (CHO stably transfected with human AT1R-Rluc8); insert in pCIneo. Conditions: Ang II 1 μM, co-transfection (FIG. 3H). The procedure:
as §1, §2
Oligonucleotides were designed and ordered to generate the ALCAM, BCAM and MCAM intracellular (cytosolic) domains. […]
After 2 hours of exposure to Ang II (1 μM) cells were placed in Trizol, mRNA extracted and cDNA synthesized. Changes in the gene expression of the NFκB subunit, p65 (RelA) or NFκB-activated target genes (e.g ICAM-1) were estimated by quantitative real-time RT-PCR, performed using the TaqMan system based on real-time detection of accumulated fluorescence (ABI Prism 7700, Perkin-Elmer Inc, PE Biosystems, Foster City, Calif., USA). […]

Turning to MKHVNKDLGNMEENKKLEENNHK [ALCAM559-580], the “induction of p65-NFκB expression by Ang II via transactivation of EpCAM289-314” value in test [1] is listed as “prevents induction”. Moreover, the “ligand-dependent signalling (PCNA expression) via murine ALCAM activated by S100A8/A9” value in test [2] is “inhibited”. Moreover, the “ligand-dependent signalling (PCNA expression) via full length RAGE activated by S100A8/A9” value in test [3] is recorded as “inhibited”. For the same sequence, the “induction of p65-NFκB expression by Ang II via transactivation of BCAM569-628” value in test [4] is “prevents induction”.
